{
  "source": "paper PMC4450073",
  "key": {"[1]": {"molecular_target": "Ad26.HVR5C hexon, on purified vector particles (human adenovirus type 26)", "experiment": "SPR; biotinylated virus coupled to a streptavidin (SA) chip (Ad5 482 RU, Ad26.HVR5C 484 RU), T200; 2-fold serial dilutions of hFX from 30 μg/mL injected at 30 μL/min; 10 mM HEPES pH 7.4, 150 mM NaCl, 5 mM CaCl2, 0.005% Tween20; 1:1 binding model"}, "[2]": {"molecular_target": "adenovirus type 5 (Ad5) hexon, on purified Ad5 vector particles (human adenovirus type 5) (UniProt P04133)", "experiment": "SPR; biotinylated virus coupled to a streptavidin (SA) chip (Ad5 482 RU, Ad26.HVR5C 484 RU), T200; 2-fold serial dilutions of hFX from 30 μg/mL injected at 30 μL/min; 10 mM HEPES pH 7.4, 150 mM NaCl, 5 mM CaCl2, 0.005% Tween20; 1:1 binding model"}},
  "data": [
    {"substance": "human coagulation factor X (natural protein)", "values": [
      {"measurement": "Kd", "setting": "[1]", "result": 3.46, "unit": "nM"},
      {"measurement": "koff", "setting": "[1]", "result": 0.0107, "unit": "s⁻¹"},
      {"measurement": "kon", "setting": "[1]", "result": "3.08e+06", "unit": "M⁻¹ s⁻¹"},
      {"measurement": "Kd", "setting": "[2]", "result": 2.33, "unit": "nM"},
      {"measurement": "koff", "setting": "[2]", "result": 0.00305, "unit": "s⁻¹"},
      {"measurement": "kon", "setting": "[2]", "result": "1.31e+06", "unit": "M⁻¹ s⁻¹"}
    ]}
  ]
}
